# Experimental data reported in US20230365642A1.
# Biological target: high affinity IL-2 receptor (IL-2R) consisting of CD122, CD132 and CD25, on CTLL-2 cells (mouse) (UniProt P01590)
# Experiment: cell-based or functional assay
# high affinity IL-2 receptor (IL-2R) consisting of CD122, CD132 and CD25, on CTLL-2 cells (mouse), sequence (P01590 22-268, chain 1 of 3): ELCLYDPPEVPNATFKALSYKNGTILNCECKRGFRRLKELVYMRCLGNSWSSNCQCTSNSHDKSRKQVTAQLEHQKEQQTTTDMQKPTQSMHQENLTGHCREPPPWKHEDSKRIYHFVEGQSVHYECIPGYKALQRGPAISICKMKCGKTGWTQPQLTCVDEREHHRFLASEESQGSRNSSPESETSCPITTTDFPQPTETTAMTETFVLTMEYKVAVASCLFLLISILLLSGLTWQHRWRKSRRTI
# high affinity IL-2 receptor (IL-2R) consisting of CD122, CD132 and CD25, on CTLL-2 cells (mouse), sequence (P16297 27-539, chain 2 of 3, further chain): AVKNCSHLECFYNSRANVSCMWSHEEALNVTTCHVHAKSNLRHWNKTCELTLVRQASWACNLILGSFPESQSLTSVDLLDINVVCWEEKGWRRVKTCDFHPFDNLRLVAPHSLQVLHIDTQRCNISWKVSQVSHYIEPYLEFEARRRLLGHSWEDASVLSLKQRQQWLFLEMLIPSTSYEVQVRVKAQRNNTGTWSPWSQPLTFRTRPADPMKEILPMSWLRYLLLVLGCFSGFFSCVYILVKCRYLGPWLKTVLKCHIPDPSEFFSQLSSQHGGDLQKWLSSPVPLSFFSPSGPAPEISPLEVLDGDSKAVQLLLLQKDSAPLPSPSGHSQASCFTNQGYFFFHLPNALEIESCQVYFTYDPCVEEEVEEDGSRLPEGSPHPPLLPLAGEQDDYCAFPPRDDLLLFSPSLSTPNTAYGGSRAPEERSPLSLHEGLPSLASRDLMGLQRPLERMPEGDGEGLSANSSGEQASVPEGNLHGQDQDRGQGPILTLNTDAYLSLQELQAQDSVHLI
# high affinity IL-2 receptor (IL-2R) consisting of CD122, CD132 and CD25, on CTLL-2 cells (mouse), sequence (P34902 23-369, chain 3 of 3, further chain): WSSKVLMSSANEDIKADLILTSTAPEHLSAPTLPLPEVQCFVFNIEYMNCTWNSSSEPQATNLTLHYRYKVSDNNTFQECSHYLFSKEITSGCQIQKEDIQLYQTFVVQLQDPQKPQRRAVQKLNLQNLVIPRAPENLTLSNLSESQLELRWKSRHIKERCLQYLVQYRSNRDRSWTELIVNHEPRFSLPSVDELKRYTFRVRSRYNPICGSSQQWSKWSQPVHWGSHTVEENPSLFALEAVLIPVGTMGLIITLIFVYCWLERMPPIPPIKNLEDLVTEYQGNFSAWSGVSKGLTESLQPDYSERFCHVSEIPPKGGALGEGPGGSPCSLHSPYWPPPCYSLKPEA
substance,measurement,value
rhIL-2 (from UniProt P60568 21-153) (ligand),"CTLL-2 cell proliferation, EC50",6.4 pM
